Data taken from patent US20220411514A1, “ANTI-GAL3 ANTIBODIES AND METHODS OF USE FOR INSULIN RESISTANCE” (TrueBinding, Inc., priority 2021, published 2022).
Numbering of substitutions follows the chain as printed.

B1: 847.28D1: anti-Gal3 antibody (antibody, V domains shown)
VH: QVQLVETGPGLVAPSQSLSITCTVSGFSLTSYGVHWIRQSPGKGLEWLGTIWAGGSTDYNSPLMSRLSISKDNSKNQVFLKMNSLQIDDTAIYYCASPPSGYDYDVFASWGQGTLVTVSA
VL: DIRMTQSPASLSASVGETVTITCRASGNIHNYLAWYHQKQGKSPQLLVYNVKTLADGVPSRFSGSGSGTQFSLKINSLQPEDFGTYYCQHFWSIFPTFGGGTKLEIK
B2: 847.3B3: anti-Gal3 antibody (antibody, V domains shown)
VH: B1 VH with V5K, T7S, S40P, T50G, S70T, N76S, I87S, I92M, S109Y
VL: B1 VL with R3L, H37Q, N50S, V51A, N76D, I94L
B3: 847.23F11: anti-Gal3 antibody (antibody, V domains shown)
VH: QVQLQQSGAELVRPGASVKLSCKASGYTFTSSWMNWVKQRPGQGLDWIGMIDPSDSETHYNQMFKDKATLTVDKSSNTAYMQLSRLTSEDSAVYYCVNSNYESGYWGQGTTLTVSS
VL: DILMTQSHKFMSTSVGDRVSITCKASQDVSSVVVWYQQKPGQSPKQLIYWASTRHTGVPDRFTGSGSGTDYTLTISSVQAEDLALYYCQQHYSTPYTFGGGTKLEIK
B4: 847.13E2-mH0mL1: anti-Gal3 antibody (antibody, V domains shown)
VH: EVQLQQSGPELVKPGASVKVSCKASGYSFTDYNMYWVMQSHGKSLEWIGYIDPYNDATSYSQKFTGKATLTVDKSSSTAFMHLNSLTSEDSAVYYCARWGRYEYYAMDYWGQGTSVTVSS
VL: DIVMTQSPASLPVSLGQRATISCRASKSVTTSAYSYIHWYQQRPGQPPKLLIYLASNLESGVPARFSGSGSGTDFTLNIHPVEEEDAATYYCQHNRELPPTFGGGTKLEIN
B5: 847.13E2-mH0mL2: anti-Gal3 antibody (antibody, V domains shown)
VH: B4 VH
VL: DIVLTQSPATLSVTPGDSVSFSCRASQIINNNLHWYQQKSHESPRLLIRYTSQSISGIPSRFSGSGSGTDFTLSINNVETEDFGMYFCQQTNSWPLTFGAGTKLELK
B6: 849.1D2: anti-Gal3 antibody (antibody, V domains shown)
VH: QVQLKESGPVLVAPSQSLSITCTVSGFSLSSYGVHWVRQPPGKGLEWLGVIWAGGSTDYDSALMSRLSISKDNSKSQVFLKMDSLQTDDTAMYYCAKPPYDYDGAWFAYWGQGTLVTVSA
VL: DVVMTQTPKFLLVSAGDRVTITCKASQSVSSDVAWYQQKPGQSPKLLIYFASNRYTGVPDRFTGSGYGTDFTFTISTVQAEDLAVYFCQHNYISPFTFGGGTKLEIK
B7: 2D10-hVH4-HVL2: anti-Gal3 antibody, VH SEQ ID NO: 807, VL SEQ ID NO: 822 (antibody, V domains shown)
VH: QVQLVQSGAEVKKPGASVKVSCKASGYTFTDYYINWVRQAPGQRLEWMGWIYPGSQDTKYNEKFQGRVTLTVDTSASTAYMELSSLRSEDTAVYFCANYFGSSGWFFDVWGQGTMVTVSS
VL: DIVMTQSPLSLPVTPGEPASISCRSSKSLLHSDGITYLYWYLQKPGQSPQLLIYRMSNLASGVPDRFSGSGSGTDFTLKISRVEAEDVGVYYCAQMIEFPLTFGQGTKLEIK
modifications: VH-81 Peptide Sequence; VL-79 Peptide Sequence
B8: 2D10-hVH4-HVL4: anti-Gal3 antibody, VH SEQ ID NO: 809, VL SEQ ID NO: 824 (antibody, V domains shown)
VH: B7 VH
VL: B7 VL with P15L, E17Q, L42Q, K44R, A60D
modifications: VH-83 Peptide Sequence; VL-81 Peptide Sequence
B9: 2D10-hVH3-HVL1: anti-Gal3 antibody, VH SEQ ID NO: 810, VL SEQ ID NO: 825 (antibody, V domains shown)
VH: B7 VH with N61S, E62Q, L70I, F95Y
VL: B7 VL with L59R
modifications: VH-84 Peptide Sequence; VL-82 Peptide Sequence
B10: 2D10-hVH3-HVL3: anti-Gal3 antibody, VH SEQ ID NO: 812, VL SEQ ID NO: 827 (antibody, V domains shown)
VH: B7 VH with N61S, E62Q, L70I, F95Y
VL: B7 VL with I2V, P15L, E17Q, L42Q, K44R, Q50R, L59R, A60D
modifications: VH-86 Peptide Sequence; VL-84 Peptide Sequence
B11: 2D10-hVH4-HVL3: anti-Gal3 antibody, VH SEQ ID NO: 808, VL SEQ ID NO: 823 (antibody, V domains shown)
VH: B7 VH
VL: B7 VL with I2V, P15L, E17Q, L42Q, K44R, Q50R, L59R, A60D
modifications: VH-82 Peptide Sequence; VL-80 Peptide Sequence
B12: 2D10-hVH3-HVL2: anti-Gal3 antibody, VH SEQ ID NO: 811, VL SEQ ID NO: 826 (antibody, V domains shown)
VH: B7 VH with N61S, E62Q, L70I, F95Y
VL: B7 VL
modifications: VH-85 Peptide Sequence; VL-83 Peptide Sequence
B13: 2D10-hVH3-HVL4: anti-Gal3 antibody, VH SEQ ID NO: 813, VL SEQ ID NO: 828 (antibody, V domains shown)
VH: B7 VH with N61S, E62Q, L70I, F95Y
VL: B7 VL with P15L, E17Q, L42Q, K44R, A60D
modifications: VH-87 Peptide Sequence; VL-85 Peptide Sequence

These molecules were tested against T1, Human Gal3 peptides (Homo sapiens, UniProt P17931) (assay: Gal3 peptide binding ELISA (Example 8)). Details: antibody 5 μg/mL.
T1 construct: purchased LifeTein custom order
Method: Gal3 peptide binding activity of additional exemplary anti-Gal3 antibodies was assessed with the same peptides as described in FIG. 18 (SEQ ID NOs: 3-26). Human Gal3 peptides (LifeTein, custom order) and human Gal3 proteins (R&D Systems, 8259-GA; TrueBinding, QCB200349) were diluted in PBS (Corning, 21-030-CM) to concentrations of at least 100 μg/mL (peptides) or 1 μg/mL (proteins), and added to the wells of several 96-well ELISA plates (Thermo Fisher, 44-2404-21). After incubating the plates at 4° C. overnight, the plates were washed three times with PBST (PBS with 0.05% Tween 20 [VWR, 0777]). The plates were then blocked for an hour with 2% BSA (EMD Millipore, 126609) in PBST at room temperature with gentle rocking. Thereafter, the 2% BSA in PBST was discarded and Gal3-binding antibodies (reformatted hIgG4 [S228P]) were diluted in 2% BSA in PBST to concentrations of 5 μg/mL and added to the wells. The plates were incubated for an hour at room temperature with gentle rocking and then washed three times with PBST. Afterwards, Peroxidase AffiniPure F(ab′)2 Fragment Goat Anti-Human IgG (H+L) polyclonal antibody (Jackson ImmunoResearch, 109-036-003), was diluted in 2% BSA in PBST (1:4000) and added to the wells. The plates were incubated for 1 hour at room temperature with gentle rocking and then washed three times with PBST. TMB substrate (Thermo Scientific, 34029) was then added to each well. The reaction was stopped with 1M HCl (JT Baker, 5620-02) and read using a plate reader (Molecular Devices) at absorbance of 450 nm.

Molecule	binding to Gal3 peptide 6 (SEQ ID NO: 8)	binding to Gal3 peptide 17 (SEQ ID NO: 19)	binding to Gal3 peptide 13 (SEQ ID NO: 15)	binding to Gal3 peptide 1 (SEQ ID NO: 3)
B1	bound			
B2		bound		
B3		bound	bound	
B4		bound	bound	
B5		bound	bound	
B6		bound		bound

What follows are molecules tested on GLUT4 translocation in L6 GLUT4myc myoblasts (assay: Insulin-stimulated GLUT4 translocation with Gal3 and anti-Gal3 antibody). Details: 30 μg/mL Gal3 pre-incubated with 60 μg/mL antibody, 100 nM insulin.
Format: cell-based, rat
Method: Rat L6 GLUT4myc myoblasts (Kerafast #ESK202-FP) express a Myc-tagged GLUT4 that can be detected with an anti-Myc antibody. These cells were grown in a 48-well plate in MEM u growth media (Gibco, #12-571-063)+10% fetal bovine serum (FBS; Corning #35-016-CV) until 90-95% confluence was reached. Cells were then washed in PBS and serum starved for 2 hours in MEM u growth media without FBS. Thirty (30) μg/mL recombinant human Gal3 (TrueBinding QCB200347) was pre-incubated with 60 μg/mL anti-Gal3 antibodies for 30 minutes before being added to the serum-starved cells for 1 hour at 37° C. At the end of incubation, half of the cells were treated with 100 nM insulin (Sigma-Aldrich #I5523-50MG) for 20 minutes while the other half acted as basal controls. After 20 minutes, cells were washed quickly with ice cold PBS twice, then incubated with 4% paraformaldehyde (Boster Bio #AR1068) for 10 minutes on ice followed by 10 minutes at room temperature. The cells were washed three times with PBS, then blocked with 0.5 mL 5% goat serum (Vector Laboratories #101098-382) in PBS for 15 minutes. After the blocking agent was aspirated from the cells, 1 μg/ml anti-Myc polyclonal antibody (Sigma-Aldrich #C-3956) in 5% goat serum was added for 1 hour. […] Primary antibody was aspirated away, and then cells washed 5 times with PBS. Next, cells (including background controls) were incubated with 1:1000 goat anti rabbit antibody secondary antibody (Abcam #Ab97051) in 5% Goat serum for 30 minutes at room temperature. After washing, cells were incubated with 400 μL of TMB (Thermo Scientific #PI34029) for 5 minutes, then 200 μL of 1N HCL (Avantor Performance #JT5620-2) was added to stop the reaction. 100 μL of the sample was transferred to a 96 well plate with duplicates transferred for each condition. Samples were read at 450 nm on a SpectraMax plate reader. […] The fold changes were plotted on GraphPad Prism and presented as mean (SEM) of the technical replicates. Statistical significance was determined using unpaired T-tests comparing samples treated with Gal3 and insulin with all other conditions.

Molecule	effect on Gal3 block of insulin-stimulated GLUT4 translocation
B7	reduce the ability of Gal3 to block GLUT4 translocation
B8	reduce the ability of Gal3 to block GLUT4 translocation
B9	reduce the ability of Gal3 to block GLUT4 translocation
B10	reduce the ability of Gal3 to block GLUT4 translocation
B11	reduce the ability of Gal3 to block GLUT4 translocation
B12	reduce the ability of Gal3 to block GLUT4 translocation
B13	reduce the ability of Gal3 to block GLUT4 translocation

Each molecule was assayed against T2, human Gal3 (Homo sapiens, UniProt P17931) (assay: Epitope binning, sandwich format, SPR Carterra LSA (Example 8)). Details: not given.
T2 construct: 6xHis (linker-spaced) (C); purchased AcroBio (Acro Biosystems) GA3-H5129
T2 sequence (P17931 whole entry): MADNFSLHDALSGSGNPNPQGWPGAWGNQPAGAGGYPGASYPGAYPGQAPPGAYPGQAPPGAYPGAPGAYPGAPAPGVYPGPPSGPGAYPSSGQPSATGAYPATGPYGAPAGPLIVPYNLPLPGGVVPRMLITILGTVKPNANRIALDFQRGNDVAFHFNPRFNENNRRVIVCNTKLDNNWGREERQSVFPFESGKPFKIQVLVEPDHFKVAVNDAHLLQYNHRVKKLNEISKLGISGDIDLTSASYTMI
Format: binding
Method: The epitope binning assay was done in a sandwich format on the high-throughput SPR-based Carterra LSA unit (CarterraBio, Salt Lake City, Utah). First, the purified antibodies were diluted to 10 μg/ml concentration in 10 mM NaOAc (pH 5.0) and then were covalently coupled via amine group to HC200M chip activated by EDC and S-NHS to immobilize antibodies to different positions of a 384-spot array. One hundred thirty-eight binning cycles were run on the array of immobilized antibodies. In each cycle, first, human Gal3 (AcroBio GA3-H5129) was injected over the entire array to bind to different antibodies (primary antibody), followed by one antibody (secondary antibody) selected among the panel of 150 anti-GAL3 antibodies tested. At the end of each cycle, the array was regenerated by 10 mM Glycine (pH 2.0) to remove bound antigen and secondary antibody from the array. The data analysis was done using the Epitope software by CarterraBio.

Molecule	epitope bin (mutual competitive binding for Gal3)
B1	CRD
B2	CRD
B3	CRD
B4	CRD
B5	CRD
B6	11
